# B1: SERPINB5 (parent)
# chain: FPESETKECPFRVNKVCGAACSSK
# Variants of: B1
# Experiment: protein stability index of a GFP-peptide fusion (GPS, HEK-293T) (PSI 1-6); higher = more stable
# Settings: c terminus: a fixed tail appended
# 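Note: lentivirally expressed fusions sorted by FACS into six bins by GFP to DsRed ratio, PSI derived from sequencing read proportions per bin multiplied by bin number.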
row,Variant,protein stability index
1,FPESETKDCPFRVNKVCGAACSSK,2.16
2,FPESETKKCPFRVNKVCGAACSSK,3.04
3,FPESETKWCPFRVNKVCGAACSSK,1.66
4,FPESETKVCPFRVNKVCGAACSSK,2.59
5,FPESETKHCPFRVNKVCGAACSSK,2.14
6,FPESETKQCPFRVNKVCGAACSSK,1.98
7,FPEFETKECPFRVNKVCGAACSSK,2.54
8,FPEPETKECPFRVNKVCGAACSSK,3.49
9,FPEWETKECPFRVNKVCGAACSSK,2.03
10,FPEIETKECPFRVNKVCGAACSSK,2.72
11,FPEYETKECPFRVNKVCGAACSSK,2.9
12,FPESETKECPFRVNKVCEAACSSK,2.6
13,FPESETKECPFRVNKVCQAACSSK,2.66
14,FPESETKECPFRVNKVCMAACSSK,2.56
15,FPESETKECPFRVNKVCTAACSSK,2.35
16,FPESETKECPFRVNKVCGAACASK,3.52
17,FPESETKECPFRVNKVCGAACDSK,2.66
18,FPESETKECPFRVNKVCGAACGSK,3.07
19,NPESETKECPFRVNKVCGAACSSK,4.61
20,IPESETKECPFRVNKVCGAACSSK,4.67
21,WPESETKECPFRVNKVCGAACSSK,3.85
22,GPESETKECPFRVNKVCGAACSSK,4.7
23,APESETKECPFRVNKVCGAACSSK,4.46
24,FPESETKECPFRVNKVCGALCSSK,2.79

row,Variant,protein stability index
1,FPESETKECPFRVNKVCGAECSSK,2.84
2,FPESETKECPFRVNKVCGAHCSSK,2.58
3,FPESETKECPFRVNKVCGASCSSK,2.29
4,FPESETKECPFRVNKVCGARCSSK,2.53
5,FPESETKECPFRVNKVCGAWCSSK,1.94
6,FPESETKECPFRVNKVCGAICSSK,2.32
7,FPESETRECPFRVNKVCGAACSSK,2.88
8,FPESETNECPFRVNKVCGAACSSK,3.05
9,FPESETIECPFRVNKVCGAACSSK,2.55
10,FGESETKECPFRVNKVCGAACSSK,3.59
11,FAESETKECPFRVNKVCGAACSSK,2.02
12,FFESETKECPFRVNKVCGAACSSK,4.09
13,FYESETKECPFRVNKVCGAACSSK,3.67
14,FPLSETKECPFRVNKVCGAACSSK,1.43
15,FPDSETKECPFRVNKVCGAACSSK,2.42
16,FPSSETKECPFRVNKVCGAACSSK,1.47
17,FPYSETKECPFRVNKVCGAACSSK,1.53
18,FPPSETKECPFRVNKVCGAACSSK,2.15
19,FPESETKECPFRVNKWCGAACSSK,2.49
20,FPESETKECPFRVNKSCGAACSSK,2.28
21,FPESETKEDPFRVNKVCGAACSSK,3.87
22,FPESETKEQPFRVNKVCGAACSSK,4.03
23,FPESETKETPFRVNKVCGAACSSK,2.64
24,FPESETKECFFRVNKVCGAACSSK,2.55

row,Variant,protein stability index
1,FPESETKECSFRVNKVCGAACSSK,3.96
2,FPESETKECYFRVNKVCGAACSSK,2.3
3,FPESETKECPFRVNWVCGAACSSK,1.32
4,FPESETKECPFRVNFVCGAACSSK,2.12
5,FPESETKECPFRVNVVCGAACSSK,2.1
6,FPESETKECPFRVNPVCGAACSSK,2.58
7,FPESETKECPFRVNLVCGAACSSK,2.61
8,FPESETKECPFRVNQVCGAACSSK,2.52
9,FPESETKECPFRVNTVCGAACSSK,2.48
10,FPESETKECPFRVNKVCGAACSSI,1.88
11,FPESETKECPFRVNKVCGAACSSY,2.25
12,FPESETKECPFRVNKVCGAACSSC,3.31
13,FPESETKECPFRVNKVCGAACSSN,1.89
14,FPESETKECPFRVNKVCGAACSSL,2.13
15,FPESETKECPIRVNKVCGAACSSK,4.74
16,FPESETKECPMRVNKVCGAACSSK,4.48
17,FPESETKECPDRVNKVCGAACSSK,5.06
18,FPESETKECPGRVNKVCGAACSSK,2.87
19,FPESNTKECPFRVNKVCGAACSSK,1.89
20,FPESMTKECPFRVNKVCGAACSSK,2.35
21,FPESQTKECPFRVNKVCGAACSSK,1.4
22,FPESFTKECPFRVNKVCGAACSSK,1.6
23,FPESETKECPFRPNKVCGAACSSK,3.02
24,FPESETKECPFRDNKVCGAACSSK,4.31

row,Variant,protein stability index
1,FPESETKECPFRVNKVCGAACSRK,2.02
2,FPESETKECPFRVNKVCGAAQSSK,2.22
3,FPESETKECPFRVNKVCGAAASSK,2.76
4,FPESETKECPFRVNKVCGNACSSK,2.61
5,FPESETKECPFRVNKVCGTACSSK,2.62
6,FPESETKECPFRVNKVCGHACSSK,2.51
7,FPESETKECPFRVQKVCGAACSSK,3.29
8,FPESETKECPFRVWKVCGAACSSK,2.4
9,FPESETKECPFRVRKVCGAACSSK,2.17
10,FPESETKECPFRVEKVCGAACSSK,3.29
11,FPESETKECPFRVHKVCGAACSSK,3.27
12,FPESETKECPFRVNKVHGAACSSK,2.45
13,FPESETKECPFRVNKVTGAACSSK,2.68
14,FPESETKECPFDVNKVCGAACSSK,4.86
15,FPESETKECPFGVNKVCGAACSSK,4.11
16,FPESETKECPFCVNKVCGAACSSK,4.62
17,FPESETKECPFTVNKVCGAACSSK,3.84
18,FPESETKECPFVVNKVCGAACSSK,2.43
19,FPESETKECPFHVNKVCGAACSSK,3.83
20,FPESEPKECPFRVNKVCGAACSSK,2.91
21,FPESESKECPFRVNKVCGAACSSK,2.36
22,FPESEDKECPFRVNKVCGAACSSK,2.47

# Reference: the supplement of paper PMC10567573
